Data published in patent US12410262B2, “Peptide conjugates of cytotoxins as therapeutics” (Cybrexa 2, Inc., priority 2019, dated 2025).

Key:
Plasma stability studies = type: in vitro ADME; settings: rat plasma, 100 μM conjugate, 37° C.
Method: A 20 mM stock of conjugate was prepared in 100% DMSO. The stocks were subsequently diluted in 100 mM Tris, pH 7.5 to yield an intermediate dilution of 500 μM and then diluted 1:5 directly into rat plasma to yield a final concentration of 100 μM of conjugate. Samples were mixed by inversion and incubated at 37° C. for up to 24 h. 50 μL samples were aliquoted into siliconized microfuge tubes at time 0, 4, and 24 h and immediately frozen at −80° C.
(§1) Samples were thawed and extracted as follows: 8 μL of 25% phosphoric acid followed by 117 μL of 100% Acetonitrile/0.1% TFA was added to each sample, mixed and centrifuged at 13000×G for 10 minutes. The supernatant was pipetted into 0.2 mL HPLC vials and placed on a Perkin Elmer Flexar HPLC autosampler. The following table summarizes HPLC conditions:
Data was analyzed by calculating the percentage reduction of compound (area of retention time peak of incubated conjugate/area of retention time peak of conjugate at time 0)×100.

HCT116 = assay: cells; type: cell-based, human; settings: 96 h
Method: Cells were plated in 96 well black walled-clear bottom plates (Griener), DLD-1 WT cells at 2500 cells per well, FaDu, and HeLa cells at 5000 cells per well, and HCT116 at 3000 cells per well, in growth media containing 10% FBS. Cells were allowed to adhere at room temperature for 60 minutes before returning to a 37 C, 5% CO2 incubator. After 24 hours, media was removed and replaced with fresh growth media containing various drug concentrations. Each drug concentration was added in triplicate. Non-drug treated controls contained growth media only. Cells were returned to the incubator. Ninety-six hours after addition of drug, cells were fixed with 4% paraformaldehyde for 20 minutes and stained with Hoechst at 1 ug/mL. The plates were imaged on a Cytation 5 auto imager (BioTek) and cells were counted using CellProfiler (http://cellprofiler.org). The percent cell growth delay was calculated and data plotted using GraphPad Prism

[1] = Glutathione cleavage study; type: in vitro ADME; settings: Tris buffer with 10 mM glutathione, Glutathione Challenge (10 mM), 100 μM conjugate, Tris pH 7.5, 37° C.
Method: A 20 mM stock of conjugate was prepared in 100% DMSO. The stocks were subsequently diluted in 100 mM Tris, pH 7.5, to yield an intermediate dilution of 500 μM followed by an additional dilution of 1:5 in 100 mM Tris, pH 7.5 to give a final concentration of 100 μM of conjugate. 100 mM glutathione was prepared immediately prior to use in H2O and diluted 1:10 in challenge samples for a final glutathione challenge concentration of 10 mM. Samples were mixed by inversion and incubated at 37° C. for up to 24 hrs. […]
as §1, with “100% acetonitrile/0.1%” for “100% Acetonitrile/0.1%”, “TFA were” for “TFA was”
Data was analyzed by calculating the percentage reduction of compound (area of retention time peak of […] conjugate/area of retention time peak of conjugate at time 0)×100.

CC[C@@]1(O)C(=O)OCc2c1cc1n(c2=O)Cc2c-1nc1cc(F)c(C)c3c1c2[C@@H](NC(=O)O[C@H]1COC[C@@H]1SSC[C@H](NC(=O)[C@H](Cc1c[nH]c2ccccc12)NC(=O)[C@H](CC(C)C)NC(=O)[C@H](CC(C)C)NC(=O)[C@H](CC(=O)O)NC(=O)[C@H](CC(C)C)NC(=O)[C@H](CC(C)C)NC(=O)[C@H](CC(C)C)NC(=O)[C@@H](NC(=O)[C@H](CC(=O)O)NC(=O)[C@@H](NC(=O)[C@@H]1CCCN1C(=O)[C@H](Cc1ccccc1)NC(=O)[C@H](CC(C)C)NC(=O)[C@H](CC(C)C)NC(=O)[C@H](CC(=O)O)NC(=O)[C@H](CC(C)C)NC(=O)[C@H](Cc1ccc(O)cc1)NC(=O)[C@H](C)NC(=O)[C@H](CCCNC(=N)N)NC(=O)[C@H](Cc1c[nH]c2ccccc12)NC(=O)[C@@H]1CCCN1C(=O)[C@H](CC(N)=O)NC(=O)[C@H](CCC(N)=O)NC(=O)[C@H](CC(=O)O)NC(=O)[C@H](CC(=O)O)NC(=O)[C@H](C)N)[C@@H](C)O)[C@@H](C)O)C(=O)NCC(=O)O)CC3 [Compound 17]
remaining at 4 h, 100 µM (Plasma stability studies): 107%
remaining at 24 h, 100 µM (Plasma stability studies): 105%
IC50 (HCT116): 0.7 nM
remaining at 4 h, 100 µM [1]: 3.4%
remaining at 24 h, 100 µM [1]: 1.7%

CC[C@@]1(O)C(=O)OCc2c1cc1n(c2=O)Cc2c-1nc1cc(F)c(C)c3c1c2[C@@H](NC(=O)O[C@H]1Cc2ccccc2C[C@@H]1SSC[C@H](NC(=O)[C@H](Cc1c[nH]c2ccccc12)NC(=O)[C@H](CC(C)C)NC(=O)[C@H](CC(C)C)NC(=O)[C@H](CC(=O)O)NC(=O)[C@H](CC(C)C)NC(=O)[C@H](CC(C)C)NC(=O)[C@H](CC(C)C)NC(=O)[C@@H](NC(=O)[C@H](CC(=O)O)NC(=O)[C@@H](NC(=O)[C@@H]1CCCN1C(=O)[C@H](Cc1ccccc1)NC(=O)[C@H](CC(C)C)NC(=O)[C@H](CC(C)C)NC(=O)[C@H](CC(=O)O)NC(=O)[C@H](CC(C)C)NC(=O)[C@H](Cc1ccc(O)cc1)NC(=O)[C@H](C)NC(=O)[C@H](CCCNC(=N)N)NC(=O)[C@H](Cc1c[nH]c2ccccc12)NC(=O)[C@@H]1CCCN1C(=O)[C@H](CC(N)=O)NC(=O)[C@H](CCC(N)=O)NC(=O)[C@H](CC(=O)O)NC(=O)[C@H](CC(=O)O)NC(=O)[C@H](C)N)[C@@H](C)O)[C@@H](C)O)C(=O)NCC(=O)O)CC3 [Compound 18]
remaining at 4 h, 100 µM (Plasma stability studies): 104%
remaining at 24 h, 100 µM (Plasma stability studies): 93%
IC50 (HCT116): 2.9 nM
remaining at 4 h, 100 µM [1]: 60.1%
remaining at 24 h, 100 µM [1]: 13%

CC[C@@]1(O)C(=O)OCc2c1cc1n(c2=O)Cc2c-1nc1cc(F)c(C)c3c1c2[C@@H](NC(=O)O[C@@H]1COCC[C@H]1SSC[C@H](NC(=O)[C@H](Cc1c[nH]c2ccccc12)NC(=O)[C@H](CC(C)C)NC(=O)[C@H](CC(C)C)NC(=O)[C@H](CC(=O)O)NC(=O)[C@H](CC(C)C)NC(=O)[C@H](CC(C)C)NC(=O)[C@H](CC(C)C)NC(=O)[C@@H](NC(=O)[C@H](CC(=O)O)NC(=O)[C@@H](NC(=O)[C@@H]1CCCN1C(=O)[C@H](Cc1ccccc1)NC(=O)[C@H](CC(C)C)NC(=O)[C@H](CC(C)C)NC(=O)[C@H](CC(=O)O)NC(=O)[C@H](CC(C)C)NC(=O)[C@H](Cc1ccc(O)cc1)NC(=O)[C@H](C)NC(=O)[C@H](CCCNC(=N)N)NC(=O)[C@H](Cc1c[nH]c2ccccc12)NC(=O)[C@@H]1CCCN1C(=O)[C@H](CC(N)=O)NC(=O)[C@H](CCC(N)=O)NC(=O)[C@H](CC(=O)O)NC(=O)[C@H](CC(=O)O)NC(=O)[C@H](C)N)[C@@H](C)O)[C@@H](C)O)C(=O)NCC(=O)O)CC3 [Compound 20]
remaining at 4 h, 100 µM (Plasma stability studies): 98.7%
remaining at 24 h, 100 µM (Plasma stability studies): 95.8%
IC50 (HCT116): 7.9 nM
remaining at 4 h, 100 µM [1]: 5.2%
remaining at 24 h, 100 µM [1]: 8%
